Columns and labels:
[1] = biological target: T1, Recombinant human EGFR-ED (human, UniProt P00533 25-645); experiment: SPR, v1323 captured by anti-human IgG, EGFR-ED injected, 1:1 Langmuir fit
T1 construct: extracellular domain; also called extracellular domain (ED) of EGFR
Method: (§1) The ability of v1323 comprising an EGFR binding domain to bind to the extracellular domain (ED) of EGFR was tested by Surface Plasmon Resonance (SPR) using a ProteOn XPR36 system from BIO-RAD.
(§2) Approximately 3000 RU of anti-human IgG 25 ug/ml was immobilized on a GLC chip using standard amine coupling. Exemplary SDACs were captured on the anti-human IgG immobilized chip to capture level of approximately 700 RU. Recombinant human EGFR-ED was diluted in running buffer and injected at a flow rate of 50 μl/min for 2 minutes, followed by dissociation for another 4 minutes. Sensograms were fit globally to a 1:1 Langmuir binding model. All experiments were conducted at room temperature.

[2] = biological target: T1, Recombinant human EGFR-ED; experiment: SPR (ProteOn XPR36); v1323 captured on immobilized anti-human IgG, recombinant human EGFR-ED injected as analyte; global 1:1 Langmuir fit
Method: as §1, §2

B1: v1323, monovalent anti-EGFR antibody (EG2) (Fc fusion)
VHH: QVKLEESGGGLVQAGDSLRVSCAASGRDFSDYVMGWFRQAPGKEREFVAAISRNGLTTRYADSVKGRFTISRDNDKNMVYLQMNSLKPEDTAVYYCAVNSAGTYVSPRSREYDYWGQGTQVTVSS
notes: EU numbering; no light chain, no CH1; also called exemplary heteromultimer; not shown: hinge/linker between the VhH and the Fc (not described), and with it the heterodimer Fc carrier, left out of the chains
- Kd [1]: 3 to 4.5 nM
- Kd [2]: 4.05 nM
- koff [2]: 0.004 s⁻¹
- kon [2]: 989000 M⁻¹ s⁻¹

From patent US20160257763A1 (Zymeworks, published 2016)
